Data taken from patent publication US20100234274A1, “Use of Nestafin-1 in the Treatment for Diabetes” (priority 2009, published 2010).

Legend:
[1] = tested on: db/db mice; assay: i.v. injection of plasmin inhibitors in db/db mice (serum nesfatin-1, food intake, body weight); assay type: in vivo, mouse; conditions: for circulating nesfatin-1: serum at 30 minutes
Experimental: Lower nesfatin-1 in “saline” than “ff db/db” (FIG. 3b) was due to blood dilution after injection. (b) Reduction in body weight after a 3-day i.v. AMCA (15 mg/day); (c) Food intake at day 3 during a 3-day i.v. AMCA (15 mg/day).
Hypothalamus in acetic acid supplemented with protease inhibitor cocktail tablets (Roche, Indianapolis, Ind.) was homogenized, sonicated and heated at 95° C. for 15 minutes. The samples were then centrifuged at 13,200 rpm at 4° C. for 30 minutes. The supernatants were finally collected as their protein contents were determined by the Bradford assay (Thermo-Fisher Sci. Rockford, Ill.). Mouse serum was freshly prepared by drawing blood through ophthalmectomy. About […] hypothalamic total proteins or 25 μL serum were analyzed with Waters Delta 600E/2487/717 HPLC system using an analytical C18 reverse phase column (4.6×250 mm/5 μm, Hambon, Zhangjiagang, Conn.). Nesfatin-1 was eluted with a linear gradient from 20%-40% solvent B (solvent A: water with 0.1% trifluoroacetic acid, solvent B: acetonitrile with 0.1% trifluoroacetic acid) for 20 minutes at the flow rate of iml/minute. The purified nesfatin-1 was used as the standard to determine the retention time and plot the standard curve. The fraction collected at the retention time was sent for the mass spectrometry analysis.
It is unknown how nesfatin-1 is cleared from circulation. The tiny amount of plasmin generation in periphery was previously reported and confirmed in our study (data not shown). AMCA and aprotinin, two inhibitors of plasmin, was i.v. injected to db/db. The reduction in food intake and body weight was seen while circulating nesfatin-1 was increased (FIG. 8). […] Therefore, peripheral nesfatin-1 was believed at least partially to be degraded by plasmin.

[2] = tested on: db/db mice; assay: Inhibitor pre-treatment before i.v. nesfatin-1 in db/db mice, blood glucose; assay type: in vivo, mouse; conditions: blood glucose in 6 hours
Experimental: GW9662, a PPAR-gamma irreversible inhibitor, was i.v. injected into the tail vein of db/db mice at the dose of 0.45 μg per gram body weight. After 30 minutes, 100 ug Nesfatin-1 was injected into the tail vein of db/db mice. Blood glucose was measured in 6 hours.
Compound C, a 5′-AMP-activated protein kinase (AMPK) specific inhibitor, was intraperitoneally injected to db/db mice at the dose of 20 mg per kg body weight. Subsequently, 100 ug Nesfatin-1 was injected into the tail vein of db/db mice. Blood glucose was measured in 6 hours.

[3] = target: T1, recombinant nesfatin-1 (UniProt P81117)
T1 sequence: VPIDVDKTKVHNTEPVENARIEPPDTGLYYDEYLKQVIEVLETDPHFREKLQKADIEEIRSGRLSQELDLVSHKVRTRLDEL

[4] = tested on: db/db mice; assay: Blood glucose after i.v. nesfatin-1 in db/db mice; assay type: in vivo, mouse
[5] = tested on: wild-type mice; assay: Intraperitoneal glucose tolerance test (IGTT) in wild-type mice; assay type: in vivo, mouse; conditions: 100 μg nesfatin-1, i.v. injection of 1.5 g/kg glucose
Experimental: Mice of the investigated genotype (plg^+/+lepr^−/−, plg^−/−lepr^−/−, plg^+/+lepr^+/+, plg^−/−lepr^+/+) were fasted for 18 hours at 8, 16 and 24 weeks old, before blood sampling from tail veins to measure fasting blood glucose using a glucose meter (Accu-Chek, Roche). Mice serum insulin was measured at the age of 12 weeks by ELISA (ALPCO, Salem, N.H.). IGTT was performed previously. As briefly, 12-week old mice were placed in clean cages without food at 4 pm on the day prior to the experiment. […] Blood glucose was measured immediately before and at 10, 20, 30, 60, 90, 120, and 180 minutes after the injection of glucose.
(§1) Amazingly as described above, the diabetic symptoms of db/db mice were essentially eliminated in plg^−/−lepr^−/−, which couldn't be possibly explained by the anorexigenic effect of nesfatin-1.

[6] = target: plasmin (Homo sapiens, UniProt P00747); assay: Incubation of recombinant nesfatin-1 with plasmin; assay type: biochemical
Experimental: Arrows indicated the putative cleavage sites by plasmin. (b) Nesfatin-1 was completely digested by plasmin within 2 hours.
The recovery of hypothalamic nesfatin-1 in plg^−/−lepr^−/− was consistent to its normalization in food intake and body weight (FIG. 2ac). Fasted mice always had less nesfatin-1 in hypothalamus than their freely feeding counterparties (FIG. 5b). Furthermore, plasminogen deficiency provided a unique approach to study the chronic effect of elevated nesfatin-1 in hyperphagic obese animals, which was impossible for the i.c.v. or i.p. administration due to the short half-time of nesfatin-1. Consequently, agrp and npy were found reduced in plg^−/−lepr^−/−, while pomc was elevated compared with plg^+/+lepr^−/− (FIG. 6), contradicting to the previous report that i.c.v. nesfatin-1 didn't alter the expression of pomc, npy and agrp. Consistent to the present finding, the same group reported the up-regulation of pomc by i.p. nesfatin-1 in NTS recently.

[7] = i.c.v. or i.p. injection; cited from earlier work
[8] = both directions, nonsaturable system; cited from earlier work
[9] = tested on: ob/ob mice; assay: Blood lipid analysis after i.v. nesfatin-1 in ob/ob mice; assay type: in vivo, mouse; conditions: 100 ug tail vein, 3 hours after injection
Experimental: One hundred ug Nesfatin-1 was injected into the tail vein of ob/ob mice. Blood samples were taken 3 hours after the injection for lipid analysis.

[10] = tested on: Streptozotocin-induced type-I diabetic C57BL/6J mice; assay: Streptozotocin-induced type-I diabetic mice, blood glucose; assay type: in vivo; conditions: 100 μg/mouse i.v. alone or combined with s.c. insulin (2 ng/mouse)
Experimental: as §1
Male C57BL/6J mice (10 weeks) were given intraperitoneal injections of Streptozotocin (STZ) in sodium citrate (pH 4.5) on two consecutive days (100 mg/kg/day). Blood glucose was measured by tail vein sampling using the glucose oxidase enzymatic test. Diabetes was defined as a morning blood glucose reading of >16 mM after STZ. When blood glucose levels exceeded 30 mM, diabetic mice were given 16 ng of porcine insulin (Wangbang, Xuzhou, Conn.) every second day to prevent weight loss while maintaining blood glucose levels within the hyperglycemic range (16-30 mM). Nesfatin-1 (100 μg/mouse) was i.v. injected either alone or combined with s.c. insulin (2 ng/mouse) to STZ-induced type-I diabetic mice.

[11] = Clearance of i.v. nesfatin-1 from circulation; assay type: in vivo, mouse
[12] = tested on: rats; conditions: cited from earlier work
[13] = tested on: rats; conditions: injected directly into the brain of rats; cited from earlier work

Sequence of plasmin (P00747 97-810, species assumed): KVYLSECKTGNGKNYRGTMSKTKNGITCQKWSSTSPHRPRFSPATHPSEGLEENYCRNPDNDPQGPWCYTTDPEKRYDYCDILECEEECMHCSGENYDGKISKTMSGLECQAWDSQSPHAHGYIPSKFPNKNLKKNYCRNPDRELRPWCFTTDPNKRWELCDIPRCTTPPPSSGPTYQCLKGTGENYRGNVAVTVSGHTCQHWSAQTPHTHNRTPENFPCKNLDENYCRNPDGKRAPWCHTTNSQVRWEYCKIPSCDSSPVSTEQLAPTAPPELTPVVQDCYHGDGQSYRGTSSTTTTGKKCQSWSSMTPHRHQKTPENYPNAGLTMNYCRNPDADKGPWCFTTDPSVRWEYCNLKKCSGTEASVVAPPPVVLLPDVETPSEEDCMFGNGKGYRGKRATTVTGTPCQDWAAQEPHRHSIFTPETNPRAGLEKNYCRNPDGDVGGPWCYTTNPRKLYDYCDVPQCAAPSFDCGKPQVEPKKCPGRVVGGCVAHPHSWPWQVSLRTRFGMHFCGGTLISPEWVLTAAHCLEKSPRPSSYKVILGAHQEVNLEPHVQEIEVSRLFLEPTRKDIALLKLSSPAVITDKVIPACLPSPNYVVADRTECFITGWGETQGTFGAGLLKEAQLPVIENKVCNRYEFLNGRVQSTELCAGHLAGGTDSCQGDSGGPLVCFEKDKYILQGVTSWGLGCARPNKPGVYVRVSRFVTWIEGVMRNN
Sequence of plasmin (P00747 97-580 partner limits assumed, species assumed): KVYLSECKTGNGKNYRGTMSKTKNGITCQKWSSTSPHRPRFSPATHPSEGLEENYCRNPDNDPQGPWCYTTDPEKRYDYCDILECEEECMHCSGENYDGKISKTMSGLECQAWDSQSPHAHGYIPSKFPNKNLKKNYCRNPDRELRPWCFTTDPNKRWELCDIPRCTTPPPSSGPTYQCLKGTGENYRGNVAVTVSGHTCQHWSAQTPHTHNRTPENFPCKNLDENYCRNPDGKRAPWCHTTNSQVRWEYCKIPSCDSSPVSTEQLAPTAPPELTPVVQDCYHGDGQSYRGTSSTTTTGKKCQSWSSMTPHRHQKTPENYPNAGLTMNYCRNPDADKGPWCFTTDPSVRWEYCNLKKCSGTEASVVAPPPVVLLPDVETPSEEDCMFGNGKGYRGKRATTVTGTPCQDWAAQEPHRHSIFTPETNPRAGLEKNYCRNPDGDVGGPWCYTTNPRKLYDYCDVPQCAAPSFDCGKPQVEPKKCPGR

## NC[C@H]1CC[C@H](C(=O)O)CC1 [AMCA, tranexamic acid]
[1]
  body weight: reduction
  food intake: reduction
  circulating nesfatin-1: increased

## aprotinin
[1]
  body weight: reduction
  food intake: reduction
  circulating nesfatin-1: increased

## c1cc(-c2cnn3cc(-c4ccc(OCCN5CCCCC5)cc4)cnc23)ccn1 [Compound C]
[2]; 20 mg per kg body weight intraperitoneally before 100 ug nesfatin-1
  inhibition of the anti-diabetic effect of nesfatin-1: fully inhibited

## O=C(Nc1ccccc1)c1cc([N+](=O)[O-])ccc1Cl [GW9662]
[2]; 0.45 μg per gram body weight i.v., 30 minutes before 100 ug nesfatin-1
  inhibition of the anti-diabetic effect of nesfatin-1: fully inhibited

## plasmin
[3]
  degradation of recombinant nesfatin-1 on incubation with plasmin: It was then incubated with plasmin and rapidly degraded as expected
  digestion of nesfatin-1 by plasmin (in vitro incubation): Nesfatin-1 was completely digested by plasmin within 2 hours

B1: nesfatin-1: recombinant nesfatin-1 expressed and purified from genetically engineered E. coli; secreted N-terminus fragment of NUCB2 (protein)
peptide: VPIDVDKTKVHNTEPVENARIEPPDTGLYYDEYLKQVIEVLETDPHFREKLQKADIEEIRSGRLSQELDLVSHKVRTRLDEL
[4]; 100 μg i.v., freely fed db/db
  blood glucose: significantly reduced
[4]; i.c.v. injection, db/db, data not shown
  diabetic improvement: little diabetic improvement
[4]; i.v.
  duration of anti-diabetic effect: > 6 h
[4]; i.v., FIG. 7d, e
  dose and time dependence of anti-diabetic effect: dose- and time-dependent
[5]
  uptake of blood sugar during IGTT: significantly enhanced the uptake of blood sugar
[6]; FIG. 4b
  time to complete digestion by plasmin: ≤ 2 h
[6]; recombinant nesfatin-1 from E. coli
  degradation on incubation with plasmin: rapidly degraded
[7]
  body weight: reduces body weight
  food intake: inhibits food intake
[8]
  blood brain barrier crossing: crosses the Blood Brain Barrier (BBB)
[9]
  HDL in blood: unaffected
  LDL in blood: significantly reduced
  total cholesterol in blood: significantly reduced
  triglyceride in blood: significantly reduced
[10]
  blood glucose: decreased only when nesfatin-1 was injected with s.c. insulin
[11]; i.v., data not shown
  clearance in plg−/− versus plg+/+: cleared much slower
[11]; mouse, in vivo
  half-life in circulation: 10 min
[12]
  neuropsychological effect: increasing anxiety and fear-related behaviors

B2: NUCB2: hypothalamus-secreted protein containing 396 amino acids, precursor of nesfatin-1 (protein, UniProt P80303 25-420, looked up)
Nucleobindin-2: VPIDIDKTKVQNIHPVESAKIEPPDTGLYYDEYLKQVIDVLETDKHFREKLQKADIEEIKSGRLSKELDLVSHHVRTKLDELKRQEVGRLRMLIKAKLDSLQDIGMDHQALLKQFDHLNHLNPDKFESTDLDMLIKAATSDLEHYDKTRHEEFKKYEMMKEHERREYLKTLNEEKRKEEESKFEEMKKKHENHPKVNHPGSKDQLKEVWEETDGLDPNDFDPKTFFKLHDVNSDGFLDEQELEALFTKELEKVYDPKNEEDDMVEMEEERLRMREHVMNEVDTNKDRLVTLEEFLKATEKKEFLEPDSWETLDQQQFFTEEELKEYENIIALQENELKKKADELQKQKEELQRQHDQLEAQKLEYHQVIQQMEQKKLQQGIPPSGPAGELKFEPHI
[13]
  body weight: decreases body weight
  feeding: promotes anorexia
